Assay results published in publication PMC10099132, “Sequence and Structural Motifs Controlling the Broad Substrate Specificity of the Mycobacterial Hormone-Sensitive Lipase LipN” (ACS Omega, 2023).

Tests used:
Assay in all cases: purified protein, by the assay type
Design in all cases: fluorogenic ester hydrolysis, fluorescein release, Michaelis-Menten fit of initial rates
[1] = substrate: CC(C)C(=O)OCOc1ccc2c(c1)Oc1cc(OCOC(=O)C(C)C)ccc1C21OC(=O)c2ccccc21
Protocol: (§1) The enzyme kinetic activity of LipN was assayed via the hydrolysis of the fluorogenic substrates (Figure 1) in accordance with past kinetic analysis of mycobacterial serine hydrolases.[37],[38],[40],[66],[67] Kinetic assays were run in triplicate on black 96-well plates in a Synergy H1 Hybrid Reader (BioTek). Fluorogenic ester substrates (10 mM in DMSO) were diluted to a starting concentration of 100 μM in PBS containing acetylated BSA (Sigma; 0.1 mg/mL). Eight serial dilutions (1:1; 120 μL into 240 μL total volume) of each substrate were made using PBS–BSA. Fluorogenic substrate dilutions (95 μL) were then transferred to opaque 96-well microplate (Corning, Lowell, MA). Reactions were initiated by quickly adding enzyme (5 μL, 3.0 nM final concentration) to each assay well, mixed, and the fluorescence counts measured every 26–30 s for 4.5 min with a BioTek H1 Synergy multimode plate reader (Biotek Instruments; Winooski, VT) at ambient temperature. The instrument measured relative fluorescence through excitation at λ = 485 nm and emission at λ = 520 nm. The fluorescence change was converted to molar concentrations using a fluorescein standard curve (300–2.3 nM), whose fluorescence was measured simultaneously. The initial rates of the enzyme-catalyzed reactions were measured in triplicate and plotted versus fluorogenic substrate concentration. […] (A) Activation of fluorogenic ester substrates by MmLipN. Each of the substrates is composed of diacyloxymethyl ether fluorescein with varying R-groups. The differing R-groups have been organized into classes and colored based on chemical functionality. All of the substrates were synthesized as described previously.[38],[43] Substrates 6, 10–11, 14–15, 20, 23–30, and 33 were newly synthesized for this characterization of MmLipN. Detailed synthetic characterization is provided in the Supporting Information. (B) Global comparison of the catalytic specificity (kcat/KM) of MmLipN against each of the 33 substrates with ester classes labeled. Catalytic efficiency values (kcat/Km) are given ± SD based on at least three independent kinetic replicates. (C, D) Kinetic activity of MmLipN against high-activity ester substrates 1 (black circles), 7 (blue squares), and 20 (red diamonds) and low-activity ester substrates 12 (green circles), 16 (red squares), 27 (purple diamonds), and 31 (orange squares). Low- and high-activity substrates display classic Michaelis–Menten kinetics with MmLipN and activity above background hydrolysis rates. Traces colored based on ester classification from (A, B). All measurements were completed in at least triplicate and shown ± SD.

[2] = substrate: CC1(C(=O)OCOc2ccc3c(c2)Oc2cc(OCOC(=O)C4(C)CC4(Cl)Cl)ccc2C32OC(=O)c3ccccc32)CC1(Cl)Cl
Protocol: as §1

[3] = substrate: CC1(C)CC1C(=O)OCOc1ccc2c(c1)Oc1cc(OCOC(=O)C3CC3(C)C)ccc1C21OC(=O)c2ccccc21
Protocol: as §1

[4] = substrate: CCC(=O)OCOc1ccc2c(c1)Oc1cc(OCOC(=O)CC)ccc1C21OC(=O)c2ccccc21
Protocol: as §1

[5] = substrate: CCCC(=O)OCOc1ccc2c(c1)Oc1cc(OCOC(=O)CCC)ccc1C21OC(=O)c2ccccc21
Protocol: as §1

[6] = substrate: COCC(=O)OCOc1ccc2c(c1)Oc1cc(OCOC(=O)COC)ccc1C21OC(=O)c2ccccc21
Protocol: as §1

[7] = substrate: COCCOCCC(=O)OCOc1ccc2c(c1)Oc1cc(OCOC(=O)CCOCCOC)ccc1C21OC(=O)c2ccccc21
Protocol: as §1

[8] = substrate: N#CC1(C(=O)OCOc2ccc3c(c2)Oc2cc(OCOC(=O)C4(C#N)CC4)ccc2C32OC(=O)c3ccccc32)CC1
Protocol: as §1

[9] = substrate: N#CCC(=O)OCOc1ccc2c(c1)Oc1cc(OCOC(=O)CC#N)ccc1C21OC(=O)c2ccccc21
Protocol: as §1

[10] = substrate: O=C1OC2(c3ccc(OCOC(=O)C4(c5ccccc5)CC4)cc3Oc3cc(OCOC(=O)C4(c5ccccc5)CC4)ccc32)c2ccccc21
Protocol: as §1

[11] = substrate: O=C1OC2(c3ccc(OCOC(=O)C4(c5ccccn5)CC4)cc3Oc3cc(OCOC(=O)C4(c5ccccn5)CC4)ccc32)c2ccccc21
Protocol: as §1

B1: MmLipN (LipN from M. marinum) (Mycobacterium marinum M) (protein)
chain: MTNSLPGETDLHPETVHATMSWLSRVQNTVTVVGAKVIPWVPDVAKRLITRGRSVIIDGNTLDPALQLMLSGMRVVGLDGLVIDDDLAASRAHMREAMLGFPGPQIHVDVEELTLPGPAGDISARHYRPPGDAAAPLLVFYHGGGWALGDLDTHDAVCRLTCRDAGIHVLAIDYRLSPEDRAPAAIDDAFAAFEWAHAHAAELGALPGRVAVGGDSAGGNLAAVVSQLARDSGGPAPIFQWLIYPRTDFAGRTRSASLFARGFLLTKRDIDWFHSQYLKGSGIEPTDPRVSPLRAESLAGLAPALIAVAGFDPLRDEGENYATALRAAGTPVDLRAMGSLTHGFLNLFPLGGGCAAATSELISALRAHLTRV
notes: E. coli LOBSTR (DE3); Ni-NTA
- Km [1]: 9.5 ± 2.2 µM
- kcat [1]: 0.017 ± 0.014 s⁻¹
- kcat/Km [1]: 1800 ± 800 M⁻¹ s⁻¹
- Km [2]: 0.87 ± 1.1 µM
- kcat [2]: 1.1e-05 ± 3e-05 s⁻¹
- kcat/Km [2]: 12 ± 19 M⁻¹ s⁻¹
- Km [3]: 1.7 ± 1.1 µM
- kcat [3]: 0.0011 ± 0.0018 s⁻¹
- kcat/Km [3]: 660 ± 590 M⁻¹ s⁻¹
- Km [4]: 4.2 ± 0.5 µM
- kcat [4]: 0.18 ± 0.06 s⁻¹
- kcat/Km [4]: 42000 ± 15000 M⁻¹ s⁻¹
- Km [5]: 6.2 ± 0.1 µM
- kcat [5]: 0.062 ± 0.029 s⁻¹
- kcat/Km [5]: 10000 ± 5000 M⁻¹ s⁻¹
- Km [6]: 2.6 ± 1.1 µM
- kcat [6]: 0.11 ± 0.12 s⁻¹
- kcat/Km [6]: 40000 ± 25000 M⁻¹ s⁻¹
- Km [7]: 21 ± 4 µM
- kcat [7]: 0.0005 ± 0.0004 s⁻¹
- kcat/Km [7]: 26 ± 11 M⁻¹ s⁻¹
- Km [8]: 1.7 ± 1.1 µM
- kcat [8]: 0.0012 ± 0.0018 s⁻¹
- kcat/Km [8]: 670 ± 590 M⁻¹ s⁻¹
- Km [9]: 3.1 ± 0.6 µM
- kcat [9]: 0.015 ± 0.008 s⁻¹
- kcat/Km [9]: 4900 ± 1400 M⁻¹ s⁻¹
- Km [10]: 13 ± 8 µM
- kcat [10]: 5.8e-05 ± 0.00014 s⁻¹
- kcat/Km [10]: 4.4 ± 5.4 M⁻¹ s⁻¹
- Km [11]: 0.049 ± 0.027 µM
- kcat [11]: 2.6e-05 ± 2e-05 s⁻¹
- kcat/Km [11]: 530 ± 250 M⁻¹ s⁻¹
